T1: CBC (Homo sapiens, UniProt P52298)
T1 sequence (P52298 1-156): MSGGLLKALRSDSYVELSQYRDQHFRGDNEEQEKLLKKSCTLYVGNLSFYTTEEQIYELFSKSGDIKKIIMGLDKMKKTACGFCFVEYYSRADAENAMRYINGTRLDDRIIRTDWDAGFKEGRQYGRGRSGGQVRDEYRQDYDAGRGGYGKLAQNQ
T1 sequence (Q09161 20-790 partner): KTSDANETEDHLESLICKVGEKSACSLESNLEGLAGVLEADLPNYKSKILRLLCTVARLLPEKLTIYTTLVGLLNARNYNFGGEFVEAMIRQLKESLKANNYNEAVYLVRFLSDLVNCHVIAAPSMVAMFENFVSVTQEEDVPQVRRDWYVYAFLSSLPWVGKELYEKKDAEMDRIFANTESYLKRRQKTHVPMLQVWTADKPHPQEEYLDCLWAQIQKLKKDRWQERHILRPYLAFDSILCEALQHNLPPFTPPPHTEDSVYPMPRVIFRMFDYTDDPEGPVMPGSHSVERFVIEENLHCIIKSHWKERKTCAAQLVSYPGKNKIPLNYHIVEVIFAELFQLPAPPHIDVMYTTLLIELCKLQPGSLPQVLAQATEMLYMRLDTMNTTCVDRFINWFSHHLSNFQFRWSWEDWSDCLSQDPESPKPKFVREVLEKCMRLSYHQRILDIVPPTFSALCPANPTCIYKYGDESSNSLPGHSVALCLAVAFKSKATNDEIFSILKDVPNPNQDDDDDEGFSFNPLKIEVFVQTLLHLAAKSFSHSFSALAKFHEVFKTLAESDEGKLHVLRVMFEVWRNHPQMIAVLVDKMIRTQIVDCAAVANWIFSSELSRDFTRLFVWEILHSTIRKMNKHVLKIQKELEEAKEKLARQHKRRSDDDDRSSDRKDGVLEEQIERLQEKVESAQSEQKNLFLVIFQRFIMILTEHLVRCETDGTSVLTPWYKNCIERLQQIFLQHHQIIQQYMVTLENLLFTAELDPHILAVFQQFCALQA


What was measured:
CBC [1] = molecular target: T1, CBC; assay: Size exclusion chromatography (gel filtration) co-elution with CBC, without m^7GTP; assay type: binding; settings: fractions analysed by SDS-PAGE, absence of m^7GTP
Protocol: (§1) Fig. 1 The interaction of CBC with ARS2 is enhanced in the presence of m^7GTP. a Schematic diagram of the domain structure of ARS2 based on ref. [26]. b Gel filtration chromatogram and Coomassie-stained SDS-PAGE of CBC-ARS2 in the presence and absence of m^7GTP. Purified recombinant CBC and ARS2^147–871 were mixed with (orange) or without (blue) 500 µM m^7GTP and subjected to gel filtration. Their elution profiles were overlaid (left) and single fractions analysed by SDS-PAGE (middle and right). Purified recombinant CBC and C-terminally truncated ARS2^147–845 were mixed with 500 µM m^7GTP and analysed in a similar way (bottom left). c ITC data and curve fit to derive the affinity of different ARS2 constructs for CBC. CBC or m^7GTP-CBC in the sample cell was titrated by ARS2. […] K D values and standard deviation represent the average from at least two independent experiments. d Sequence alignment of the C-terminus of ARS2. Conserved residues are highlighted in red. Figure made with ESPript[54]
Fig. 2 The interaction of CBC with NELF-E is enhanced in the presence of m^7GTP. a Schematic diagram of the domain structure of NELF-E. b Gel filtration chromatogram and Coomassie-stained SDS-PAGE of CBC-NELF-E in the presence and absence of m^7GTP. […] Their elution profiles were overlaid (left) and single fractions analysed by SDS-PAGE (middle and right). […]

CBC [2] = molecular target: T1, CBC; assay: Size exclusion chromatography (gel filtration) co-elution with CBC, with m^7GTP; assay type: binding; settings: gel filtration with 500 µM m^7GTP, fractions analysed by SDS-PAGE
Protocol: as §1
Fig. 2 The interaction of CBC with NELF-E is enhanced in the presence of m^7GTP. a Schematic diagram of the domain structure of NELF-E. b Gel filtration chromatogram and Coomassie-stained SDS-PAGE of CBC-NELF-E in the presence and absence of m^7GTP. Purified recombinant CBC and NELF-E were mixed with (orange) or without (green) 500 µM m^7GTP and subjected to gel filtration. Their elution profiles were overlaid (left) and single fractions analysed by SDS-PAGE (middle and right). Purified recombinant CBC and NELF-E^244–360 were mixed together with 500 µM m^7GTP and similarly analysed (bottom left). c ITC data and curve fit to derive the affinity of different NELF-E constructs for CBC. CBC or m^7GTP-CBC in the sample cell was titrated by NELF-E^244–380 or NELF-E^360–380. The data were presented as described in the caption to Fig. 1c. d Sequence alignment of the C-terminus of NELF-E. Conserved residues are highlighted in red. Figure made with ESPript[54]

[3] = tested on: CBC–NELF–E complex immobilised on m^7GTP-sepharose; assay: Displacement pull down on m^7GTP-sepharose, CBC–NELF–E; assay type: binding, human; settings: increasing amounts added, 1 h at 4 °C, flow through and elution by SDS-PAGE
Protocol: Fig. 4 Incompatibility of ARS2-PHAX and NELF-E binding to CBC. a, b Competition on m^7GTP-sepharose. a In separate experiments, different amounts of ARS2^147–871 were added to preformed CBC–NELF–E complex immobilised on m^7GTP-sepharose. […] The fluorophore FAM is represented with a star. Note that different constructs of NELF-E and ARS2 were used in c, d, and e compared to f, g, and h and are therefore represented by slightly different shapes. Error bars show the SD of three experiments
CBC-NELF-E^1–380 or CBC-PHAX^1–394 were immobilised on m^7GTP-sepharose and incubated for 1 h at 4 °C with different amounts of ARS2^147–871 or NELF-E^1–380 in 20 mM HEPES, pH 7.8, 120 mM NaCl, 2 mM tris(2-carboxyethyl)phosphine, respectively. The flow through, as well as the elution from the beads after extensive washing, was analysed by SDS-PAGE followed by Coomassie staining.

| Displacement of NELF-E from immobilised m^7GTP–CBC–NELF–E complex [3] | Molecule | Interaction with CBC by SEC (CBC [1]) | Interaction with CBC by SEC in the presence of m^7GTP (CBC [2]) |
| --- | --- | --- | --- |
|  | PHAX 103–264: human PHAX residues 103–264 (protein, UniProt Q9H814 103-264, looked up, fragment) SQKPPVAGGKKINNIWGAVLQEQNQDAVATELGILGMEGTIDRSRQSETYNYLLAKKLRKESQEHTKDLDKELDEYMHGGKKMGSKEEENGQGHLKRKRPVKDRLGNRPEMNYKGRYEITAEDSQEKVADEISFRLQEPKKDLIARVVRIIGNKKAIELLME | No interaction via SEC |  |
| could displace NELF-E | ARS2^147–871: human ARS2 lacking the putatively unstructured N-terminal region (protein, UniProt Q9BXP5 147-871, looked up, fragment) PVMKTFKEFLLSLDDSVDETEAVKRYNDYKLDFRRQQMQDFFLAHKDEEWFRSKYHPDEVGKRRQEARGALQNRLRVFLSLMETGWFDNLLLDIDKADAIVKMLDAAVIKMEGGTENDLRILEQEEEEEQAGKPGEPSKKEEGRAGAGLGDGERKTNDKDEKKEDGKQAENDSSNDDKTKKSEGDGDKEEKKEDSEKEAKKSSKKRNRKHSGDDSFDEGSVSESESESESGQAEEEKEEAEEALKEKEKPKEEEWEKPKDAAGLECKPRPLHKTCSLFMRNIAPNISRAEIISLCKRYPGFMRVALSEPQPERRFFRRGWVTFDRSVNIKEICWNLQNIRLRECELSPGVNRDLTRRVRNINGITQHKQIVRNDIKLAAKLIHTLDDRTQLWASEPGTPPLPTSLPSQNPILKNITDYLIEEVSAEEEELLGSSGGAPPEEPPKEGNPAEINVERDEKLIKVLDKLLLYLRIVHSLDYYNTCEYPNEDEMPNRCGIIHVRGPMPPNRISHGEVLEWQKTFEEKLTPLLSVRESLSEEEAQKMGRKDPEQEVEKFVTSNTQELGKDKWLCPLSGKKFKGPEFVRKHIFNKHAEKIEEVKKEVAFFNNFLTDAKRPALPEIKPAQPPGPAQILPPGLTPGLPYPHQTPQGLMPYGQPRPPILGYGAGAVRPAVPTGGPPYPHAPYGAGRGNYDAFRGQGGYPGKPRNRMVRGDPRAIVEYRDLDAPD |  | only co-eluted in the presence of the cap analogue m^7GTP |
